Data on eight molecules can be found in US20170073690A1 (CEMM FORSCHUNGZENTRUM FUER MOLEKULARE MEDIZIN, published 2017).

Experiment [1] has as its target T1, LAMTOR1 (human, UniProt Q6IAA8 2-161).
T1 construct: Endogenous in HEK293/HEK293T cells, or C-terminally tagged (V5 or SII-HA) when used as bait
Nature of the experiment: anti-HA co-IP of tagged deletion construct from HEK293T, immunoblot (FIG. 2D). From the text:
(§1) Proteins filtered using SAINT³⁵ that interacted with at least five bait proteins were retained. Previously published interactors of the Ragulator complex and RAG GTPases that were also detected are highlighted. b, Tabular view of spectral counts (maximum of biological replicate) and sequence coverage (percentage) of the core Ragulator network and published interactors detected. c HEK293T cells were transfected with the indicated constructs or empty vector (−). […] Anti-HA immunoprecipitates and cell extracts were analysed by immunoblot with the indicated antibodies. Deletion constructs are labelled with the number of the encoded amino acids (d) and point mutants with the amino acid motif substituted to alanine (e).
(§2) Cells were transfected with Polyfect (Qiagen) and used for experiments after 24 hours. For lysis, cells were resuspended in Nonidet-40 lysis buffer (1% NP-40, 50 mM Hepes pH7.4, 250 mM NaCl, 5 mM EDTA, Halt phosphatase inhibitor cocktail (ThermoScientific), one tablet of EDTA-free protease inhibitor (Roche) per 50 ml) on ice for 5 min. Lysates were cleared by centrifugation in a microcentrifuge (13000 r.p.m., 10 min, 4 C). Proteins were quantified with BCA (Pierce). […]
A general note: Immunoblotting shows a protein as a band on a membrane.

Experiment [2] deals with T2, RAGA (human, UniProt Q7L523 1-313).
T2 construct: Endogenous, or N-terminally tagged as bait; RAG GTPases act as heterodimers of RAGA/B with RAGC/D; also called RAG GTPase A
T2 sequence (Q7L523 whole entry): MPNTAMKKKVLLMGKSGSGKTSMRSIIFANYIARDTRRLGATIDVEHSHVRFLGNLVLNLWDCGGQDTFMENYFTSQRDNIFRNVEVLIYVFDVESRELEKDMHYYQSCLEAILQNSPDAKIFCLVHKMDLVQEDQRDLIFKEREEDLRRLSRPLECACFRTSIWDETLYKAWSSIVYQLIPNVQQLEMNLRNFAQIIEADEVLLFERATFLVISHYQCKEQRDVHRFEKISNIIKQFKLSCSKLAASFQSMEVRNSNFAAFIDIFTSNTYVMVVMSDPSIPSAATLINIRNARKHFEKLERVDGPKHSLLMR
Described as above.
From the text: as §1, §2

The target of experiment [3] is T1, LAMTOR1. Nature of the experiment: anti-HA co-IP of tagged point mutant from HEK293T, immunoblot (FIG. 2E).
From the text: as §1
(§3) Cells were transfected with Polyfect (Qiagen) and used for experiments after 24 hours. For lysis, cells were resuspended in Nonidet-40 lysis buffer (1% NP-40, 50 mM Hepes pH7.4, 250 mM NaCl, 5 mM EDTA, Halt phosphatase inhibitor cocktail (ThermoScientific), one tablet of EDTA-free protease inhibitor (Roche) per 50 ml) on ice for 5 min. Lysates were cleared by centrifugation in a microcentrifuge (13000 r.p.m., 10 min, 4 C). Proteins were quantified with BCA (Pierce). For immunoprecipitations, lysates were precleared on Sepharose6 beads (Sigma) (40 min. with rotation, 4° C.) and then incubated either with HA- or V5-coupled beads (3 h with rotation, 4° C.) or with primary antibody and protein G-sepharose (GE healthcare) (14 h with rotation, 4° C.). Beads were recovered and washed four times with lysis buffer before analysis by SDS-PAGE and immunoblotting.

The target in experiment [4] is T3, LAMTOR3 (human, UniProt Q9UHA4 1-124, limits assumed).
T3 construct: also called SII-HA-LAMTOR 3
T3 sequence (Q9UHA4 whole entry): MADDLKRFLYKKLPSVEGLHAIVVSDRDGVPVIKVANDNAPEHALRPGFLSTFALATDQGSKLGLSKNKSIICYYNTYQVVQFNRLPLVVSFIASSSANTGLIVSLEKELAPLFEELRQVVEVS
The description is as above.
From the text: as §1, §3

Experiment [5] addresses T2, RAGA. The description is as above.
From the text: as §1, §3

The target of experiment [6] is T4, RAGC (human, UniProt Q9HB90 1-399).
T4 construct: Endogenous, or N-terminally tagged as bait; also called RAG GTPase C
T4 sequence (Q9HB90 whole entry): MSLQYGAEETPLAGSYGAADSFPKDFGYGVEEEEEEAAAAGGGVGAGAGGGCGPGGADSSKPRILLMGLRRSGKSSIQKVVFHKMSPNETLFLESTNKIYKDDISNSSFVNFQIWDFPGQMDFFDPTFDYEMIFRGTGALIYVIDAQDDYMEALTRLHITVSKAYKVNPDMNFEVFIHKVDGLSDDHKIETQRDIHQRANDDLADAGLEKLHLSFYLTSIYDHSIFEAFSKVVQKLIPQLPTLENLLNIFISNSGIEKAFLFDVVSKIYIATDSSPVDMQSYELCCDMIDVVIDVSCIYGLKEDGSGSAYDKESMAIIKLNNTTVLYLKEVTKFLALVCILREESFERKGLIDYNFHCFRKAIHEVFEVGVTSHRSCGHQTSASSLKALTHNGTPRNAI
The experiment is described as above.
From the text: as §1, §3

In a further experiment the target is LAMTOR4 (human, UniProt Q0VGL1 1-99). Nature of the experiment: TAP-LC-MS/MS, SII-HA-tagged bait, HEK293 Flp-In TREx cells. As to the method: (§4) Tandem affinity STREP-HA purifications were performed as previously described³. In brief, cells were stimulated with doxycycline/tetracycline for 24 h to induce expression of SII-HA-tagged bait proteins. Induction of SII-HA-LAMTOR 3 was combined with 9 h starvation in serum free medium. Protein complexes were isolated by TAP using streptavidin agarose followed by elution with biotin, and a second purification step using HA-agarose beads. Proteins were eluted with 100 mM formic acid, neutralized with triethylammonium bicarbonate (TEAB) and digested with trypsin, and the peptides were analysed by LC-MS/MS.

The target of the next experiment is LAMTOR5 (human, UniProt O43504 1-91). The experiment is described as above. The procedure:
as §4

Experiment [7] deals with T1, LAMTOR1. Description: anti-HA co-IP of tagged full length point mutant from HEK293T, immunoblot (FIG. 9C).
Experiment [8] addresses T3, LAMTOR3. The description is as above.
Experiment [9] concerns the target T2, RAGA. The description is as above.
For experiment [10], the target named is T4, RAGC. Described as above.

T1 sequence (Q6IAA8 2-161 limits assumed): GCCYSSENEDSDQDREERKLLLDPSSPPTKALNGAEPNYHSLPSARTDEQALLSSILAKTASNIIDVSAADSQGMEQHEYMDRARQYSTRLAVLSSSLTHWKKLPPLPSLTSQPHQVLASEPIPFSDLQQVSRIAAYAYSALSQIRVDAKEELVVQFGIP

B1: SLC38A9 N-terminal cytoplasmic tail deletion construct (amino acids 1-111, or amino acids 1-112) (other)
chain: MANMNSDSRHLGTSEVDHERDPGPMNIQFEPSDLRSKRPFCIEPTNIVNVNHVIQRVSDHASAMNKRIHYYSRLTTPADKALIAPDHVVPAPEECYVYSPLGSAYKLQSYTE
notes: also called cytoplasmic region of SLC38A9; not shown: N-terminal HA-containing tag (Strep-HA, vector pTO-SII-HA-GW)
Turning to B1, the binding result with LAMTOR1 [1] and with RAGA [2] was “binds” throughout.

B2: SLC38A9 cytoplasmic region with motif 38RPF40 mutated to alanine (other)
chain: MANMNSDSRHLGTSEVDHERDPGPMNIQFEPSDLRSKAAACIEPTNIVNVNHVIQRVSDHASAMNKRIHYYSRLTTPADKALIAPDHVVPAPEECYVYSPLGSAYKLQSYTE
notes: also called 38RPF40 mutant (cytoplasmic region); not shown: N-terminal HA-containing tag
In the case of B2, the binding result with LAMTOR1 [3], in the experiment with LAMTOR3 [4], with RAGA [5] and in the experiment with RAGC [6] was “no binding” each time.

B3: SLC38A9 cytoplasmic region with motif 85PDH87 mutated to alanine (other)
chain: MANMNSDSRHLGTSEVDHERDPGPMNIQFEPSDLRSKRPFCIEPTNIVNVNHVIQRVSDHASAMNKRIHYYSRLTTPADKALIAAAAVVPAPEECYVYSPLGSAYKLQSYTE
notes: also called 85PDH87 mutant (cytoplasmic region); not shown: N-terminal HA-containing tag
On to B3, for which the binding result with LAMTOR1 [3], in the experiment with LAMTOR3 [4], with RAGA [5] and in the experiment with RAGC [6] was “no binding” in each case.

B4: SLC38A9 cytoplasmic region with motif 70YYSR73 mutated to alanine (other)
chain: MANMNSDSRHLGTSEVDHERDPGPMNIQFEPSDLRSKRPFCIEPTNIVNVNHVIQRVSDHASAMNKRIHAAAALTTPADKALIAPDHVVPAPEECYVYSPLGSAYKLQSYTE
notes: also called 70YYSR73 mutant (cytoplasmic region); not shown: N-terminal HA-containing tag
On to B4, for which the binding result in the experiment with LAMTOR1 [3], with LAMTOR3 [4], with RAGA [5] and with RAGC [6] was “no binding” each time.

B5: SLC38A1 (other)
chain: MMHFKSGLELTELQNMTVPEDDNISNDSNDFTEVENGQINSKFISDRESRRSLTNSHLEKKKCDEYIPGTTSLGMSVFNLSNAIMGSGILGLAFALANTGILLFLVLLTSVTLLSIYSINLLLICSKETGCMVYEKLGEQVFGTTGKFVIFGATSLQNTGAMLSYLFIVKNELPSAIKFLMGKEETFSAWYVDGRVLVVIVTFGIILPLCLLKNLGYLGYTSGFSLSCMVFFLIVVIYKKFQIPCIVPELNSTISANSTNADTCTPKYVTFNSKTVYALPTIAFAFVCHPSVLPIYSELKDRSQKKMQMVSNISFFAMFVMYFLTAIFGYLTFYDNVQSDLLHKYQSKDDILILTVRLAVIVAVILTVPVLFFTVRSSLFELAKKTKFNLCRHTVVTCILLVVINLLVIFIPSMKDIFGVVGVTSANMLIFILPSSLYLKITDQDGDKGTQRIWAALFLGLGVLFSLVSIPLVIYDWACSSSSDEGH
notes: N-terminally SII-HA tagged bait
As for B5, the binding result in the experiment with LAMTOR4 and with LAMTOR5 was “no binding” in each case.

B6: full length SLC38A9 with motif 38RPF40 mutated to alanine (other)
chain: MANMNSDSRHLGTSEVDHERDPGPMNIQFEPSDLRSKAAACIEPTNIVNVNHVIQRVSDHASAMNKRIHYYSRLTTPADKALIAPDHVVPAPEECYVYSPLGSAYKLQSYTEGYGKNTSLVTIFMIWNTMMGTSILSIPWGIKQAGFTTGMCVIILMGLLTLYCCYRVVKSRTMMFSLDTTSWEYPDVCRHYFGSFGQWSSLLFSLVSLIGAMIVYWVLMSNFLFNTGKFIFNFIHHINDTDTILSTNNSNPVICPSAGSGGHPDNSSMIFYANDTGAQQFEKWWDKSRTVPFYLVGLLLPLLNFKSPSFFSKFNILGTVSVLYLIFLVTFKAVRLGFHLEFHWFIPTEFFVPEIRFQFPQLTGVLTLAFFIHNCIITLLKNNKKQENNVRDLCIAYMLVTLTYLYIGVLVFASFPSPPLSKDCIEQNFLDNFPSSDTLSFIARIFLLFQMMTVYPLLGYLARVQLLGHIFGDIYPSIFHVLILNLIIVGAGVIMACFYPNIGGIIRYSGAACGLAFVFIYPSLIYIISLHQEERLTWPKLIFHVFIIILGVANLIVQFFM
notes: also called 38RPF40 mutant (full length); not shown: N-terminal HA-containing tag
In the case of B6, the binding result with LAMTOR1 [7], in the experiment with LAMTOR3 [8], in the experiment with RAGA [9] and with RAGC [10] was “no binding” in each case.

B7: full length SLC38A9 with motif 70YYSR73 mutated to alanine (other)
chain: MANMNSDSRHLGTSEVDHERDPGPMNIQFEPSDLRSKRPFCIEPTNIVNVNHVIQRVSDHASAMNKRIHAAAALTTPADKALIAPDHVVPAPEECYVYSPLGSAYKLQSYTEGYGKNTSLVTIFMIWNTMMGTSILSIPWGIKQAGFTTGMCVIILMGLLTLYCCYRVVKSRTMMFSLDTTSWEYPDVCRHYFGSFGQWSSLLFSLVSLIGAMIVYWVLMSNFLFNTGKFIFNFIHHINDTDTILSTNNSNPVICPSAGSGGHPDNSSMIFYANDTGAQQFEKWWDKSRTVPFYLVGLLLPLLNFKSPSFFSKFNILGTVSVLYLIFLVTFKAVRLGFHLEFHWFIPTEFFVPEIRFQFPQLTGVLTLAFFIHNCIITLLKNNKKQENNVRDLCIAYMLVTLTYLYIGVLVFASFPSPPLSKDCIEQNFLDNFPSSDTLSFIARIFLLFQMMTVYPLLGYLARVQLLGHIFGDIYPSIFHVLILNLIIVGAGVIMACFYPNIGGIIRYSGAACGLAFVFIYPSLIYIISLHQEERLTWPKLIFHVFIIILGVANLIVQFFM
notes: also called 70YYSR73 mutant (full length); not shown: N-terminal HA-containing tag
Consider B7, for which the binding result in the experiment with LAMTOR1 [7], with LAMTOR3 [8], with RAGA [9] and with RAGC [10] was “no binding” each time.

B8: full length SLC38A9 with motif 85PDH87 mutated to alanine (other)
chain: MANMNSDSRHLGTSEVDHERDPGPMNIQFEPSDLRSKRPFCIEPTNIVNVNHVIQRVSDHASAMNKRIHYYSRLTTPADKALIAAAAVVPAPEECYVYSPLGSAYKLQSYTEGYGKNTSLVTIFMIWNTMMGTSILSIPWGIKQAGFTTGMCVIILMGLLTLYCCYRVVKSRTMMFSLDTTSWEYPDVCRHYFGSFGQWSSLLFSLVSLIGAMIVYWVLMSNFLFNTGKFIFNFIHHINDTDTILSTNNSNPVICPSAGSGGHPDNSSMIFYANDTGAQQFEKWWDKSRTVPFYLVGLLLPLLNFKSPSFFSKFNILGTVSVLYLIFLVTFKAVRLGFHLEFHWFIPTEFFVPEIRFQFPQLTGVLTLAFFIHNCIITLLKNNKKQENNVRDLCIAYMLVTLTYLYIGVLVFASFPSPPLSKDCIEQNFLDNFPSSDTLSFIARIFLLFQMMTVYPLLGYLARVQLLGHIFGDIYPSIFHVLILNLIIVGAGVIMACFYPNIGGIIRYSGAACGLAFVFIYPSLIYIISLHQEERLTWPKLIFHVFIIILGVANLIVQFFM
notes: also called 85PDH87 mutant (full length); not shown: N-terminal HA-containing tag
Take B8: the binding result with LAMTOR1 [7], in the experiment with LAMTOR3 [8], with RAGA [9] and in the experiment with RAGC [10] was “no binding” each time.
